According to patent US20220002362A1:

Molecular target: OptoSTIM1 (CRY2 E281A) (Arabidopsis thaliana) (UniProt Q13586)
Assay: cell-based or functional assay

activation half-maximal time (R-GECO1 level upon light stimulation): 62 s
inactivation half time (R-GECO1 level after light removal): 7 min
Substance: OptoSTIM1 (CRY2 E281A) (from UniProt Q13586 238-668)
